Assay results from publication PMC12350670, “The characterization of variable new antigen receptors targeting FAP isolated from a novel immunized library” (Communications Biology, 2025).
Each block holds one binder with its values, some of them ahead of it.

Tests used:
[1] = molecular target: T1, recombinant human fibroblast activation protein (human, UniProt Q12884 39-757, biotin (EZ-link NHS-PEG4-biotin)); assay: BLI; biotinylated bait protein (30 nM) loaded on Octet streptavidin (SAX) biosensors; serially diluted VNAR-Fc (300-0.412 nM) as analyte; PBS with 1% BSA; kinetic analysis with a bivalent analyte model; settings: both partners purified
T1 construct: also called hFAP; human FAP; source: bought: Acro Biosystems
T1 sequence: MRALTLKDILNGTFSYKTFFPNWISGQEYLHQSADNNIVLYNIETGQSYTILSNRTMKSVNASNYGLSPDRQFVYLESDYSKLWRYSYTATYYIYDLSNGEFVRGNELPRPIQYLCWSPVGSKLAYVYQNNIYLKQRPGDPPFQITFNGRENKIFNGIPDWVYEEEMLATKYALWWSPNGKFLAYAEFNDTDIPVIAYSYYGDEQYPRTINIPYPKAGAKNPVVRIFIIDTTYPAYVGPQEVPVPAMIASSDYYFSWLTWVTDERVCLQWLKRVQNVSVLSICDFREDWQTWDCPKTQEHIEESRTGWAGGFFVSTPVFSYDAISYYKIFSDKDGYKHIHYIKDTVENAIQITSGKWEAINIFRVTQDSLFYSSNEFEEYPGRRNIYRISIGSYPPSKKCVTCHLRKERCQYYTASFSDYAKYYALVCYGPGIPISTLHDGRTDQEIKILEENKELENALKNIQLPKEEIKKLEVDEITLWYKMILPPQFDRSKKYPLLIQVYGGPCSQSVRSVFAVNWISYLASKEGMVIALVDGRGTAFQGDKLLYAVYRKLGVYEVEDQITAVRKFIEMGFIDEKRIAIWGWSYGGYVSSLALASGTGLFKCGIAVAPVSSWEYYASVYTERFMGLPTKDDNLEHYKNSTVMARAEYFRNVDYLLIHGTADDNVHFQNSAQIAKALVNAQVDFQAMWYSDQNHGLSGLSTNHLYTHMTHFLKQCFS

FAP on CWR-R1^FAP cells = molecular target: T2, FAP on CWR-R1^FAP cells (human, UniProt Q12884 1-760); assay: flow cytometry on cells; cells incubated with VNAR-Fc (several concentrations, or fixed 100 nM) 1 h on ice, detected with PE-labeled anti-human IgG Fc; KD from logistic fitting of mean fluorescence intensity; settings: one partner purified
T2 construct: also called CWR-R1-EnzR^FAP
T2 sequence (looked up): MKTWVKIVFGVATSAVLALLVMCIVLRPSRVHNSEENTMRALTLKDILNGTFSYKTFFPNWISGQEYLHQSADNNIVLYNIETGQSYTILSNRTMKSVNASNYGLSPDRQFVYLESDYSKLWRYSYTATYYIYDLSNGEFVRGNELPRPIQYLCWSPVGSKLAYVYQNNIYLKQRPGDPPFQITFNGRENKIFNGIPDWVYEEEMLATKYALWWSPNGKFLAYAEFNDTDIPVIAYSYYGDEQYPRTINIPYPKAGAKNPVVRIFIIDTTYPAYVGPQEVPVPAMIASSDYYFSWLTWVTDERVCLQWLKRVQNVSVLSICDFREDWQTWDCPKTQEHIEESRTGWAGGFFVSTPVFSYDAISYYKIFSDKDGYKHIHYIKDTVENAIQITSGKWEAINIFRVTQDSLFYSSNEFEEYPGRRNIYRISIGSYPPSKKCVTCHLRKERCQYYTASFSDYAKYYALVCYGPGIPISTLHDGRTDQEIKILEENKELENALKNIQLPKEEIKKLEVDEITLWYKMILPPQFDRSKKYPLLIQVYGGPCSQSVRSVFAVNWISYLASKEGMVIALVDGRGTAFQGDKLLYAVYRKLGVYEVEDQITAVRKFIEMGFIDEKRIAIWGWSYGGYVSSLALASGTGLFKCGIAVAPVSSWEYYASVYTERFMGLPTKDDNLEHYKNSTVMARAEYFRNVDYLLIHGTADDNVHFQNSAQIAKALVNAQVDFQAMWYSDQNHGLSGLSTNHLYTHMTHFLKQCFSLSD

FAP on hPrCSC-44 cells = molecular target: T3, FAP on hPrCSC-44 cells (human (endogenous in hPrCSC-44), UniProt Q12884 1-760); assay: as above; settings: one partner purified
T3 construct: also called endogenous FAP; source: endogenous, hPrCSC-44 immortalized cancer-associated fibroblast cells, on cells
T3 sequence (looked up): T2 sequence (looked up)

- Kd [1]: 0.356 nM
- Kd (FAP on CWR-R1^FAP cells): 8.44 nM
- Kd (FAP on hPrCSC-44 cells): 6.03 nM
B1: NGS2405-Fc (Fc fusion, nurse shark (Ginglymostoma cirratum))
chain: ARVDQTPQTITKETGESLTINCVLRDSNCALSFTYWYRKKSGSTNEESISKGGRYVETVNSGSKSFSLRINDLTVEDSGTYRCNVYVGGGCPHWIDVYGDGTAVTVN
notes: Bivalent human IgG1 Fc fusion (vector TGEX-SCblue); also called VNAR-Fc; source: ExpiCHO-S, transfected, purified (protein A, SEC)

- Kd [1]: 0.0141 nM
- Kd (FAP on CWR-R1^FAP cells): 12 nM
- Kd (FAP on hPrCSC-44 cells): 15.6 nM
B2: H4-Fc (Fc fusion, nurse shark (Ginglymostoma cirratum))
chain: ARVDQTPQTITKETGESLTINCVLRDSNCALSSTYWYRKKSGSTNEESISKGGRYVETVNSGSKSFSLRINDLTVEDSGTYRCNVYVAGMSPCLSWGDVYGDGTAVTVN
notes: Bivalent human IgG1 Fc fusion (vector TGEX-SCblue); also called anti-FAP VNAR H4; VNAR-Fc; source: ExpiCHO-S, transfected, purified (protein A, SEC)
